Source: the supplement of paper PMC12042874
± gives the uncertainty stated by the source.

Assay: amyloid nucleation score (Sup35N fusion, yeast selection) (log enrichment); library NNK2; higher = more nucleation; inactive = no reads after selection
Summary of the method: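 Libraries of peptides of 20 random codons fused to Sup35N were expressed in psi-negative yeast and induced 24 hours with 100 μM copper sulfate. Selection was 7 days at 30°C on medium lacking adenine and uracil, and plasmid inserts were Illumina-sequenced before and after selection. Nucleation score is the DiMSum log enrichment of output over input reads, centred on the mode score of non-aggregating sequences, and sequences with under 100 input reads were left out.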
TVFFIFHLLVYLPMFTRALD gave an amyloid nucleation score of 8.55 ± 0.043. In the case of TVIGLLIIVVGSYDVCSNVW, the amyloid nucleation score is reported as 6.163 ± 0.041. For TVILV, the amyloid nucleation score was “inactive”. For TVLLGHLEGRVYWEPMIQQV, the amyloid nucleation score was 0.36 ± 0.64. In the case of TVPGNEEV, the amyloid nucleation score is reported as 0.028 ± 0.53. Substance TVPTMVW has an amyloid nucleation score of -0.124 ± 0.29. TVRASCFRVSVRKEKKIVVA gave an amyloid nucleation score of 0.233 ± 0.77. In the case of TVRRTRFLNNISFNGFNVFV, the amyloid nucleation score is reported as 7.383 ± 0.054. In the case of TVSHDTGFGRNFFHVLLLS, the amyloid nucleation score is reported as -0.012 ± 1.1. In the case of TVSSIKFVVYSGLRWYELVY, the amyloid nucleation score is reported as 2.27 ± 0.1. For TVTVDIFSKEWTGGTNFCDI, the amyloid nucleation score was -0.179 ± 0.76. TVWGQECYW gave an amyloid nucleation score of 5.74 ± 0.077. In the case of TVWVIVERYMGFLYFLYNTS, the amyloid nucleation score is reported as “inactive”. TWCMRMNCSAFRKGVVNYSR gave an amyloid nucleation score of 2.91 ± 0.078. In the case of TWIGYHFGI, the amyloid nucleation score is reported as “inactive”. Substance TWLIRPKWVSVQVIRMLPMV has an amyloid nucleation score of 1.11 ± 0.41. TWRHSPCLVRTEFERKLTRL gave an amyloid nucleation score of 0.039 ± 0.49. In the case of TYAYYH, the amyloid nucleation score is reported as 5.61 ± 0.061. For TYEIFLVPS, the amyloid nucleation score was 0.41 ± 0.74. TYFVLYVCED gave an amyloid nucleation score of 0.311 ± 0.23. For TYGTTELVLHRTEINMMRNQ, the amyloid nucleation score was 3.25 ± 0.12. In the case of TYIFLSRIGQFSKLQYVMRL, the amyloid nucleation score is reported as 5.37 ± 0.056. Substance TYLDGAYLLFDSARFAKAVK has an amyloid nucleation score of 0.144 ± 0.24. TYLLLWSCGWLSWRVICALR gave an amyloid nucleation score of 4.66 ± 0.089. With TYQFMHVRLFRPMTSFIVYG the amyloid nucleation score was 0.36 ± 0.56. In the case of TYVSKIWMKRCESDILRKVI, the amyloid nucleation score is reported as “inactive”. TYYFVVQFI gave an amyloid nucleation score of 8.284 ± 0.036. In the case of VAFIFRSSWKSIPKTPKMYS, the amyloid nucleation score is reported as “inactive”. VAKLLMAGVVKPCRGGRCVG gave an amyloid nucleation score of 0.936 ± 0.16. VAPTLYLVCRIIRPNPNSYY gave an amyloid nucleation score of -0.228 ± 0.53. Substance VARHIHLTRSRNNFSSGRKA has an amyloid nucleation score of 0.958 ± 0.4. With VASRFDSSYMCKMAFI the amyloid nucleation score was -0.651 ± 0.54. For VATGLRAWWWTGKEEVGLVS, the amyloid nucleation score was 1.69 ± 0.24. VAYYEDVLSSYFIERW showed an amyloid nucleation score of -0.392 ± 0.29. Work on VCDFNVLDGCGNPGLL yielded an amyloid nucleation score of -0.67 ± 1.1. With VCFLQFYLSIFTTHTVSTYK the amyloid nucleation score was -0.547 ± 0.76. VCNFSTLELVVEDGSKAYRG gave an amyloid nucleation score of -0.079 ± 0.3. Substance VCQRPEMVLNSIETLQPRWS has an amyloid nucleation score of 0.211 ± 0.21. Work on VCRHFVRVKDQMDRTFNDKQ yielded an amyloid nucleation score of 0.18 ± 0.28. With VCVLKGDGGL the amyloid nucleation score was 0.339 ± 0.55. VCWYG showed an amyloid nucleation score of 0.034 ± 0.3. VCYYMWWFVYKHRSWQSGSW showed an amyloid nucleation score of -0.639 ± 0.74. With VDAVLND the amyloid nucleation score was 0.432 ± 0.29. VDEQSLNR gave an amyloid nucleation score of 0.62 ± 0.41. With VDILGMGRNHM the amyloid nucleation score was -1.04 ± 0.78. With VDLGLLKKTNFTQLYFGDC the amyloid nucleation score was 0.317 ± 0.16. Work on VDLRQCENLHRPWRFRRSGK yielded an amyloid nucleation score of 1.4 ± 0.2. VDRDSPKYVHA showed an amyloid nucleation score of 0.917 ± 0.32. For VDRNVTSRSQVTSSFSWDIV, the amyloid nucleation score was “inactive”. For VDSRGFHYDL, the amyloid nucleation score was “inactive”. VDVLLFRDYLNYSNLITHKV gave an amyloid nucleation score of -1.21 ± 0.54. VDYLRYLIWFNRS showed an amyloid nucleation score of 0.058 ± 0.79. In the case of VEFSLSCHNMIFYVLD, the amyloid nucleation score is reported as 6.762 ± 0.028. With VEMAFRFQRSKSCLSLDDFV the amyloid nucleation score was “inactive”. With VENLRNTIPKKEIGFSSVTG the amyloid nucleation score was -0.105 ± 0.3. VERFLPVCFIPLISKRWTMY showed an amyloid nucleation score of 0.283 ± 0.54. Work on VERIKLFASAHYS yielded an amyloid nucleation score of -0.203 ± 0.35. Work on VERLYDAYQIF yielded an amyloid nucleation score of 0.316 ± 0.4. Work on VESIKGVSCLYMFSYVMLLQ yielded an amyloid nucleation score of -0.021 ± 0.37. VFCINAFRALQTYCCWMYF gave an amyloid nucleation score of 1.91 ± 0.087. VFDGRYVESILSFF showed an amyloid nucleation score of 3.96 ± 0.1. VFELFAMCSVSKCCGVSSVT showed an amyloid nucleation score of 1.46 ± 0.4. Substance VFFGVQNKR has an amyloid nucleation score of 3.04 ± 0.095. With VFFGVSNVVSATYSYWLRIQ the amyloid nucleation score was -0.627 ± 0.76. VFGACGTM showed an amyloid nucleation score of 0.606 ± 0.32. With VFILSEYVTNAVK the amyloid nucleation score was -0.165 ± 0.54. In the case of VFILWFTVSATIKKESFGNN, the amyloid nucleation score is reported as -2.34 ± 1.1. Substance VFMTSLY has an amyloid nucleation score of -1.06 ± 0.49. Substance VFNWVRISPR has an amyloid nucleation score of 8.81 ± 0.07. For VFPDSIGN, the amyloid nucleation score was “inactive”. VFQSDECVFLCSN showed an amyloid nucleation score of -0.561 ± 0.55. With VFSNDASDNTRGRWLGYGFF the amyloid nucleation score was “inactive”. In the case of VFSYRLLSNPLSVPW, the amyloid nucleation score is reported as 4.83 ± 0.089. Substance VFTFVKERQSTWVVSFPQFL has an amyloid nucleation score of 4.68 ± 0.066. For VFVIWCFVIICVSLLSVVDR, the amyloid nucleation score was -0.795 ± 0.49. In the case of VFYLSFIFLLWLSGKYLGHW, the amyloid nucleation score is reported as 1.25 ± 0.1. With VGAMSIMKVLNFHDDILTVT the amyloid nucleation score was “inactive”. VGDRSFVMFSIFESAGSCCT gave an amyloid nucleation score of 1.03 ± 0.25. Substance VGDSMMWVTDRAKGVPYGGD has an amyloid nucleation score of 0.285 ± 0.65. Work on VGEKCDL yielded an amyloid nucleation score of -0.023 ± 0.55. With VGFISTMWHMYSELLGQINV the amyloid nucleation score was -0.499 ± 0.76. In the case of VGIYMIWLISSS, the amyloid nucleation score is reported as “inactive”. In the case of VGKVFLIPGSFYEIRLMTYF, the amyloid nucleation score is reported as 1.62 ± 0.13. VGLSPSSASTHLRN showed an amyloid nucleation score of 1.07 ± 0.33. For VGRCTINFIRLRDWVRLRQN, the amyloid nucleation score was -0.082 ± 0.6. For VGRVNIVSDLMVPNSHYICS, the amyloid nucleation score was -0.056 ± 0.76. With VGSNKGAIIGLMIVGGVVIA the amyloid nucleation score was 3.11 ± 0.16. Substance VGSVICMFMCWFA has an amyloid nucleation score of 4.75 ± 0.036.
